Measured values reported in patent publication US20170189511A1.

B1: Peptide SEQ ID NO: 170 (…) (peptide)
peptide: VYEDQVGKF
B2: Peptide SEQ ID NO: 275 (…) (peptide)
peptide: EYINQGDLHEF
B3: Peptide SEQ ID NO: 179 (…) (peptide)
peptide: MYDSYWRQF
B4: Peptide SEQ ID NO: 271 (…) (peptide)
peptide: LYHDIFSRL
B5: Peptide SEQ ID NO: 159 (…) (peptide)
peptide: LYNKGFIYL
B6: Peptide SEQ ID NO: 168 (…) (peptide)
peptide: KYQDILETI
B7: Peptide SEQ ID NO: 181 (…) (peptide)
peptide: LYLDIINLF
B8: Peptide SEQ ID NO: 228 (…) (peptide)
peptide: KYTSWYVAL
B9: Peptide SEQ ID NO: 195 (…) (peptide)
peptide: TYSVSFPMF
B10: Peptide SEQ ID NO: 283 (…) (peptide)
peptide: TYGDAGLTYTF
B11: Peptide SEQ ID NO: 175 (…) (peptide)
peptide: YYEVHKELF
B12: Peptide SEQ ID NO: 279 (…) (peptide)
peptide: TYIESASEL
B13: Peptide SEQ ID NO: 172 (…) (peptide)
peptide: TYTTVPRVAF
B14: Peptide SEQ ID NO: 210 (…) (peptide)
peptide: IYTMIYRNL
B15: Peptide SEQ ID NO: 272 (…) (peptide)
peptide: QYLQDAYSF
B16: Peptide SEQ ID NO: 288 (…) (peptide)
peptide: VYVSDIQEL
B17: Peptide SEQ ID NO: 193 (…) (peptide)
peptide: RFHPTPLLL
B18: Peptide SEQ ID NO: 284 (…) (peptide)
peptide: RYLNKAFHI
B19: Peptide SEQ ID NO: 190 (…) (peptide)
peptide: GFFIFNERF
B20: Peptide SEQ ID NO: 214 (…) (peptide)
peptide: LYLKLWNLI
B21: Peptide SEQ ID NO: 208 (…) (peptide)
peptide: TYTQDFNKF
B22: Peptide SEQ ID NO: 276 (…) (peptide)
peptide: VYGFQWRHF
B23: Peptide SEQ ID NO: 217 (…) (peptide)
peptide: FFPPTRQMGLLF
B24: Peptide SEQ ID NO: 166 (…) (peptide)
peptide: YYVESGKLF
B25: Peptide SEQ ID NO: 221 (…) (peptide)
peptide: RYSTGLAGNLL
B26: Peptide SEQ ID NO: 289 (…) (peptide)
peptide: KYPVEWAKF
B27: Peptide SEQ ID NO: 165 (…) (peptide)
peptide: DYTTWTALL
B28: Peptide SEQ ID NO: 278 (…) (peptide)
peptide: RYISDQLFTNF
B29: Peptide SEQ ID NO: 184 (…) (peptide)
peptide: VFQNFPLLF
B30: Peptide SEQ ID NO: 273 (…) (peptide)
peptide: TYIKPISKL
B31: Peptide SEQ ID NO: 169 (…) (peptide)
peptide: AYTLIAPNI
B32: Peptide SEQ ID NO: 211 (…) (peptide)
peptide: YYLEVGKTLI
B33: Peptide SEQ ID NO: 180 (…) (peptide)
peptide: IYDDSFIRPVTF
B34: Peptide SEQ ID NO: 216 (…) (peptide)
peptide: QYSSVFKSL
B35: Peptide SEQ ID NO: 274 (…) (peptide)
peptide: AYLHSHALI
B36: Peptide SEQ ID NO: 186 (…) (peptide)
peptide: IFPQFLYQF
B37: Peptide SEQ ID NO: 187 (…) (peptide)
peptide: TYLRDQHFL
B38: Peptide SEQ ID NO: 205 (…) (peptide)
peptide: VHIPEVYLI
B39: Peptide SEQ ID NO: 225 (…) (peptide)
peptide: YYVYIMNHL
B40: Peptide SEQ ID NO: 189 (…) (peptide)
peptide: WYVNGVNYF
B41: Peptide SEQ ID NO: 158 (…) (peptide)
peptide: HYSQELSLLYL
B42: Peptide SEQ ID NO: 183 (…) (peptide)
peptide: VFTSTARAF
B43: Peptide SEQ ID NO: 176 (…) (peptide)
peptide: EYNQWFTKL
B44: Peptide SEQ ID NO: 160 (…) (peptide)
peptide: VYTLDIPVL
B45: Peptide SEQ ID NO: 280 (…) (peptide)
peptide: RYPDNLKHLYL
B46: Peptide SEQ ID NO: 192 (…) (peptide)
peptide: SYALLTYMI
B47: Peptide SEQ ID NO: 163 (…) (peptide)
peptide: DYLKGLASF
B48: Peptide SEQ ID NO: 223 (…) (peptide)
peptide: KYIPYKYVI
B49: Peptide SEQ ID NO: 282 (…) (peptide)
peptide: KFVDSTFYL
B50: Peptide SEQ ID NO: 171 (…) (peptide)
peptide: LFIPSSKLLFL
B51: Peptide SEQ ID NO: 219 (…) (peptide)
peptide: EYPLVINTL
B52: Peptide SEQ ID NO: 191 (…) (peptide)
peptide: VFKASKITF
B53: Peptide SEQ ID NO: 227 (…) (peptide)
peptide: IFLDYEAGTLSF
B54: Peptide SEQ ID NO: 226 (…) (peptide)
peptide: VYRDETGELF
B55: Peptide SEQ ID NO: 182 (…) (peptide)
peptide: IYQLDTASI
B56: Peptide SEQ ID NO: 286 (…) (peptide)
peptide: RYPDNLKHL
B57: Peptide SEQ ID NO: 203 (…) (peptide)
peptide: FYSRLLQKF
B58: Peptide SEQ ID NO: 173 (…) (peptide)
peptide: IYSWILDHF
B59: Peptide SEQ ID NO: 174 (…) (peptide)
peptide: VYVGGGQIIHL
B60: Peptide SEQ ID NO: 267 (…) (peptide)
peptide: KYMVYPQTF
B61: Peptide SEQ ID NO: 206 (…) (peptide)
peptide: EYQENFLSF
B62: Peptide SEQ ID NO: 196 (…) (peptide)
peptide: LYIDRPLPYL
B63: Peptide SEQ ID NO: 162 (…) (peptide)
peptide: VFTRVSSFL
B64: Peptide SEQ ID NO: 167 (…) (peptide)
peptide: NYINRILKL
B65: Peptide SEQ ID NO: 178 (…) (peptide)
peptide: IFIEVFSHF
B66: Peptide SEQ ID NO: 177 (…) (peptide)
peptide: VYPWLGALL
B67: Peptide SEQ ID NO: 161 (…) (peptide)
peptide: IYLVSIPEL
B68: Peptide SEQ ID NO: 198 (…) (peptide)
peptide: LYLDKATLI
B69: Peptide SEQ ID NO: 194 (…) (peptide)
peptide: EFGSLHLEFL
B70: Peptide SEQ ID NO: 188 (RYFKGLVF) (peptide)
peptide: RYFKGLVF
B71: Peptide SEQ ID NO: 185 (…) (peptide)
peptide: IYKVGAPTI
B72: Peptide SEQ ID NO: 224 (…) (peptide)
peptide: QYLENLEKL
B73: Peptide SEQ ID NO: 164 (…) (peptide)
peptide: KFSSFSLFF
B74: Peptide SEQ ID NO: 215 (YFDKVVTL) (peptide)
peptide: YFDKVVTL

Molecular target: HLA-A*24 (peptide-receptive MHC class I monomer of the UV-ligand exchange assay) (human)
Experiment: UV-ligand exchange with anti-b2m ELISA

| Binder | peptide exchange yield [%] |
| --- | --- |
| B1 | 20 to 49 |
| B2 | 50 to 75 |
| B3 | > 75 |
| B4 | > 75 |
| B5 | > 75 |
| B6 | > 75 |
| B7 | > 75 |
| B8 | > 75 |
| B9 | > 75 |
| B10 | 50 to 75 |
| B11 | > 75 |
| B12 | 50 to 75 |
| B13 | > 75 |
| B14 | > 75 |
| B15 | > 75 |
| B16 | 50 to 75 |
| B17 | > 75 |
| B18 | 50 to 75 |
| B19 | 50 to 75 |
| B20 | 50 to 75 |
| B21 | 50 to 75 |
| B22 | > 75 |
| B23 | > 75 |
| B24 | > 75 |
| B25 | 50 to 75 |

| Binder | peptide exchange yield [%] |
| --- | --- |
| B26 | > 75 |
| B27 | > 75 |
| B28 | > 75 |
| B29 | > 75 |
| B30 | 50 to 75 |
| B31 | 50 to 75 |
| B32 | > 75 |
| B33 | 50 to 75 |
| B34 | > 75 |
| B35 | > 75 |
| B36 | > 75 |
| B37 | > 75 |
| B38 | 50 to 75 |
| B39 | 50 to 75 |
| B40 | 20 to 49 |
| B41 | > 75 |
| B42 | 50 to 75 |
| B43 | 50 to 75 |
| B44 | > 75 |
| B45 | > 75 |
| B46 | > 75 |
| B47 | > 75 |
| B48 | 50 to 75 |
| B49 | > 75 |
| B50 | 50 to 75 |

| Binder | peptide exchange yield [%] |
| --- | --- |
| B51 | 50 to 75 |
| B52 | 50 to 75 |
| B53 | > 75 |
| B54 | 50 to 75 |
| B55 | 50 to 75 |
| B56 | 20 to 49 |
| B57 | 50 to 75 |
| B58 | > 75 |
| B59 | 50 to 75 |
| B60 | > 75 |
| B61 | 50 to 75 |
| B62 | 50 to 75 |
| B63 | 50 to 75 |
| B64 | > 75 |
| B65 | 50 to 75 |
| B66 | > 75 |
| B67 | > 75 |
| B68 | 50 to 75 |
| B69 | < 20 |
| B70 | 50 to 75 |
| B71 | 50 to 75 |
| B72 | 50 to 75 |
| B73 | 50 to 75 |
| B74 | 20 to 49 |
